According to PMC6879718, “Mycobacterial OtsA Structures Unveil Substrate Preference Mechanism and Allosteric Regulation by 2-Oxoglutarate and 2-Phosphoglycerate” (mBio, 2019):

Columns and labels:
[1] = target: T1, M. thermoresistibile OtsA L319I, V363F, E367L (Mycolicibacterium thermoresistibile, UniProt G7CGT2, E367L/L319I/V363F); assay: OtsA kinetic parameters, continuous colorimetric coupled assay (L319I, V363F, E367L); type: biochemical, Mycobacterium thermoresistibile; details: triple mutant
T1 sequence (G7CGT2 1-486 L319I/V363F/E367L): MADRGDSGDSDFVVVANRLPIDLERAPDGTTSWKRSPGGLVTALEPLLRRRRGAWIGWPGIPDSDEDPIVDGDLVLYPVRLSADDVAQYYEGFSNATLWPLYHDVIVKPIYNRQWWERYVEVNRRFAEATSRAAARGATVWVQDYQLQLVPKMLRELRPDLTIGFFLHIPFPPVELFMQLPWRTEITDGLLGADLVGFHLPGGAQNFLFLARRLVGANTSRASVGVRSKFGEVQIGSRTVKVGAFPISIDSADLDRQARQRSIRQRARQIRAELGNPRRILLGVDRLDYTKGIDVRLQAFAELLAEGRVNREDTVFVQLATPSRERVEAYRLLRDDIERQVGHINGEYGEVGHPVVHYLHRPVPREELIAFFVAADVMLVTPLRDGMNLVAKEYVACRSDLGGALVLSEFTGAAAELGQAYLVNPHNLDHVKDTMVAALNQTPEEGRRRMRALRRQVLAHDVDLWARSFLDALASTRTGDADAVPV

MtrOtsA [2] = target: T2, MtrOtsA (Mycolicibacterium thermoresistibile, UniProt G7CGT2); assay: biochemical
T2 sequence (G7CGT2 1-486): T1 sequence (G7CGT2 1-486 L319I/V363F/E367L)

[3] = target: T3, M. thermoresistibile OtsA V363F (Mycolicibacterium thermoresistibile, UniProt G7CGT2, V363F); assay: OtsA kinetic parameters, continuous colorimetric coupled assay (V363F); type: biochemical, Mycobacterium thermoresistibile
T3 sequence (G7CGT2 1-486 V363F): T1 sequence (G7CGT2 1-486 L319I/V363F/E367L)

[4] = target: T4, M. thermoresistibile OtsA L319I (Mycolicibacterium thermoresistibile, UniProt G7CGT2, L319I); assay: OtsA kinetic parameters, continuous colorimetric coupled assay (L319I); type: biochemical, Mycobacterium thermoresistibile
T4 sequence (G7CGT2 1-486 L319I): T1 sequence (G7CGT2 1-486 L319I/V363F/E367L)

[5] = test system: Nc1ncnc2c1ncn2[C@@H]1O[C@H](COP(=O)(O)OP(=O)(O)O[C@H]2O[C@H](CO)[C@@H](O)[C@H](O)[C@H]2O)[C@@H](O)[C@H]1O; assay: as above; type: biochemical, Mycobacterium thermoresistibile; details: other: L319I; G6P fixed at 10 mM for NDP-glucose, ADP-glucose […] for G6P; pH 7.5; 37.0 °C
[6] = test system: Nc1nc2c(ncn2[C@@H]2O[C@H](COP(=O)(O)OP(=O)(O)O[C@H]3O[C@H](CO)[C@@H](O)[C@H](O)[C@H]3O)[C@@H](O)[C@H]2O)c(=O)[nH]1; assay: as above; type: biochemical, Mycobacterium thermoresistibile; details: other: L319I; G6P fixed at 10 mM for NDP-glucose, ADP-glucose […] for G6P; pH 7.5; 37.0 °C
[7] = test system: O=C[C@H](O)[C@@H](O)[C@H](O)[C@H](O)COP(=O)(O)O; assay: as above; type: biochemical, Mycobacterium thermoresistibile; details: other: L319I; G6P fixed at 10 mM for NDP-glucose, ADP-glucose […] for G6P; pH 7.5; 37.0 °C
[8] = target: M. thermoresistibile OtsA wild type (Mycolicibacterium thermoresistibile, UniProt G7CGT2); assay: OtsA kinetic parameters, continuous colorimetric coupled assay (wild type); type: biochemical, Mycobacterium thermoresistibile
MtrOtsA [9] = target: T2, MtrOtsA; details: ITC, 25°C, 60 μM OtsA, 1 mM ligand
[10] = target: Mycobacterium thermoresistibile OtsA (Mycobacterium thermoresistibile (DSM 44167)); assay: crystal structure; apo form in space group I4(1)22, ADP-G6P ternary complex in P6(2)22, one protomer per asymmetric unit each; sitting-drop vapor diffusion at 18°C
[11] = target: Mycobacterium thermoresistibile OtsA (Mycobacterium thermoresistibile (DSM 44167)); assay: not stated; in solution; the paper does not tell by which method the tetramer was seen

In the case of Nc1ncnc2c1ncn2[C@@H]1O[C@H](COP(=O)(O)OP(=O)(O)O[C@H]2O[C@H](CO)[C@@H](O)[C@H](O)[C@H]2O)[C@@H](O)[C@H]1O [ADP-glucose], the “fold increase in Km^app compared to the wild type” value [1] is reported as ~5 fold, the Kd (MtrOtsA [2]) is reported as 27.2 ± 2.66 µM and the “fold increase in Km^app over the wild type” value [3] is reported as ~2.5 fold. For the same compound, the “fold increase in Km^app compared to the wild type” value [4] was ~3 fold.

With “M. thermoresistibile OtsA L319I (Mycolicibacterium thermoresistibile ATCC 19527; L319I)” the Km [5] was 710 ± 180 µM, the kcat [5] was 8.4 ± 0.7 s⁻¹ and the kcat/Km [5] was 12000 ± 2000 M⁻¹ s⁻¹. The Km [6] was 350 ± 40 µM, the kcat [6] was 3.1 ± 0.1 s⁻¹ and the kcat/Km [6] was 8900 ± 1400 M⁻¹ s⁻¹. The Km [7] was 3300 ± 200 µM, the kcat [7] was 6.4 ± 0.2 s⁻¹ and the kcat/Km [7] was 1900 ± 200 M⁻¹ s⁻¹.

In the case of O=C[C@H](O)[C@@H](O)[C@H](O)[C@H](O)COP(=O)(O)O [Glucose-6-phosphate, glucose-6-phosphate], the “use as acceptor substrate” value ([8]; ADP-glucose as the donor substrate) is reported as “the only acceptor”.

With Nc1nc2c(ncn2[C@@H]2O[C@H](COP(=O)(O)OP(=O)(O)O[C@H]3O[C@H](CO)[C@@H](O)[C@H](O)[C@H]3O)[C@@H](O)[C@H]2O)c(=O)[nH]1 [GDP-glucose] the heat of binding (MtrOtsA [9]) was “no observable heat of binding”, the “fold increase in Km^app over the wild type” value [3] was ~2.5 fold and the “turnover, fold lower than ADP-glucose” value [8] was 5 fold.

For “Mycobacterium thermoresistibile OtsA (enzyme)”, the stoichiometry N [10] was 4 and the stoichiometry N [11] was 4.
